For 16 sequences, protein production results are on record in a protein production outcome set (Wang et al. 2014).
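Also: failed if final PepcDB status was selected cloned or expressed and not failed if soluble or beyond.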

This series in a line: label from the status in PepcDB records.
In the case of “MGFEVRRRLSVADTVTLFNAVVGFVAGAIAFTDPHLAARLILLAVIADAIDGIVARNGDSSAVGPLLDSVTDVVSFGATPSLFLYVLLTDAYGGIESAHPAVFVGLALLASAYVVCSIVRTAFYSTYFDSPDERPGMPNTLGSIIIATAYLSGITNPLVLSVGALGLSLAMIAPFDYPKPGPKHAVPMGVVQAVAVVAPAALFRAGPRAMLAIALLFFALGPWFYPGE”, the protein production entry is “failed”. The same measure for “MGFKCGIVGLPNVGKSTLFNALTKAGIEAANFPFCTIEPNTGVVPMPDPRLDQLAEIVKPQRTLPTTMEFVDIAGLVKGASKGEGLGNQFLTNIRETEAIGHVVRCFENDNIIHVSGKVNPADDIEVINTELALADLDTCERAIHRVQKKAKGGDKDAKAELAVLEKCLPQLENAGMLRALDLSAEEKAAIRYLSFLTLKPTMYIANVNEDGFENNPYLDQVREIAAKEGSVVVPVCAAVEADIAELDDEERDEFMQELGLEEPGLNRVIRAGYKLLNLQTYFTAGVKEVRAWTIPVGATAPQAAGKIHTDFEKGFIRAQTISFEDFITYKGEQGAKEAGKMRAEGKDYIVKDGDVMNFLFNV”: “not failed”. With “MGFLQPRLPDIDLAEWSQGSRSQKIRPMAQHWAEVGFGTPVLLHLFYVAKILLYVLVGWLIVLTTKGIDGFTDAAAWYAEPIVFEKVVLYTMLFEVIGLGCGFGPLNNRFFPPMGSILYWMRFGTIRLPPWPDRVPWTRGTKRKPVDVALYALLVMMLLSALFTDGAGPIPELGTTVGLLPAWQIVLILLLLGVLGLRDKVIFLAARGEVYATLTVTFLFGRLNGIDMIVAAKLVFLVIWIGAATSKLNRHFPFVISTMMSNNPLFRPRFIKRMFFKKFPGDLRPGLLSRIVAHVSTVIEMCVPVVLFVAHGGWPTVVAATIMVCFHLGILTAIPMGVPLEWNVFMIFGVLSLFVGHACLGLADVKNPVPLAILIAVVAGIVIAGNVFPRKISFLAAMRYYAGNWDTTLWCIKPSAEDKINRGIVAIASMPAAQLERFYGKDRAQIPMYLGYAFRAMNSHGRALFTLAHRAMAGHDEDDYVITDGERVCSTAVGWNFGDGHLHNEQLIAAMQQRCGFQPGEVRVVLLDAQPIHRQTQEYRLVDAATGEFERGYVRVADMVNRQPWDDDVPVHVLPG” the entry was “failed”.

As for “MGFSDAGIYLSDPNNLCQTELGFFHEPSLGFSDQSDPQNEFHITPPIYQELQDQDLEPKSQETNNCSRKEGATVKKEEEEEDDYCKTPTRSDQILSAMPRICPPAPRKPKRVPSRSLKVRNSYRSKRMIILNVSREIDCLFNPTSLCNKIKKARYI”, the protein production entry was “failed”. The same measure for “MGFTTDKIRTIAVAGHGQSGKTSLVEHLLYVSGLIAKAESVDSGKTVTDYSQEEIDRKISIYSTLVNLQKDDKLINIWDTPGASDFIGEVIAAFRSSEAALIVLDGRSGVQIETIKYWRDLDRRNKPRLVFANKMDEARADFDNCIADVKKQFQVDVFPVSFPMGTGDNFKGVVDVLHGKAYKIEDGKEVETEIPAEYQDKYKDALEVLAGAAAEGDEELLVKFIDEGELSPEEISRGLTLAMADNRIVPLFAGSAINNSGLNSLLRFISEILPSPEGALERGVTKEGEEISVKLDSSAPLSAIVVKTSNDQFSGRLSYVKVITGTLSADSEVYNLREEKKERVGKIYKTLGKKLTEVKEIAAGDIGVLVKLTSTKTNDTLAASADVIPFVRLRTPEPIYSLAVSAIDKKNDDKVSEQLFKACEEDMTLSFAFNAETKQNVLSGMGDLHTSIVLDKVKNQSKIEIQTSIPRIAYRETIQRKSQAEYTHKKQSGGHGQFGRVVLAIEPLPRGEKYKFTNAVFGGAISKGYIPGVEKGVIEAMEKGVSAGYPVVDVAVTVLDGKEHPVDSSEMAFKIAARNAFKDAMRNAGPILLEPIMNLTVFVETSYLGDIMSDLSSRRGRILGQSSPASGIEEIRAQVPHKELLRYAIDLRSMTSGTGSFEMSFDHYDPISGKIADEIIAEAKAFMEEQEE”: “failed”; for “MGGGPALNRDSSRHARPFISSPVKTLAIIPAFNEAQAIGPVLGDLPDGWVDEVVVVNNASTDATKANARAAGATVVDEPQQGYGAACLRGIAYAETRQPDVVVFLDGDYSDHPEELPRLVEPIAADEADFVVGSRIRGDAEPGALLPQAQVGNRFACSLMARLWGADYTDLGPFRAIRFRDLLALDMQDETFGWTIEMQIRALEAGLRVEEVPVSYRRGIGPSKITGTLSGTVKASAKILWTIGRMAATTHRRAPRLRERVDRARTDAPTPNPGGLEHHHHHH”: “failed”.

With “MGGGRQILHTLEQDVYFSHAHRVEIPASVTAHLFYQHFGYRPKPGGIYPDDEGLYRLEKFPHESFH”, the protein production result is given as “failed”. With “MGGHFWPPEPYTVFMWGSPWEADSPRVKLRGREKGRQTEGGAFPLVSSALSGDPRFFSPTTPPAEPIVVRLKEVRLQRDDFEILKVIGRGAFSEVAVVKMKQTGQVYAMKIMNKWDMLKRGEVSCFREERDVLVNGDRRWITQLHFAFQDENYLYLVMEYYVGGDLLTLLSKFGERIPAEMARFYLAEIVMAIDSVHRLGYVHRDIKPDNILLDRCGHIRLADFGSCLKLRADGTVRSLVAVGTPDYLSPEILQAV” the entry was “failed”; with “MGGIYRLSLKSTEATAERLSCDTRCNYEDRDLAYSPDGRWLAIARRFSNISEDIFIRDLASAHEKRLTQGLEDIRGLSWTPDSQALVFATEDSGSSNGFTLDINTAQIRSLDVEGMSYPSSVSAEGELVYHQYHRQFQMAYFSLGDKVPGSLFPLLYSGVSHRNPDYSPEAKRIVFVSSETGYNEIWTSDINGQKLEQLTQLKSRVAYPRWSPDGSRIAFIAPDDRNEGNRIFILDLTNKNITALASSYHNHGRPSWNWQGTAVLASTADGITEFYLDNRAPRVISSLSMAVGFAKSATELVFSRDGENGLWQINLTQPEHVEQLISTDAFRAGNNWVLTASGVYFKSSNGHEQLLNYWEASSQQVTSLLRVPRSSLSGFGSMTYIPEANRLVMTLDGFPQRDIILLKHKLLKLEHHHHHH”, “failed”. As for “MGGKLVSFIRSRLEIVQNIAAEDEGCKKAYYCMGSPLFALNAERMENNLVTLSGGISINKQLQKKGKPGVNVSPAFINEHNPEAIFISSFLSRPLNEFYELCQKYGIHADAVKKRQVYAVPAAWDFGNPRWILGLLYITDKLHPGKLEHHHHHH”, the protein production entry is “failed”. “MGGNRQQEIASGCCLVAEQHDQVVAYASYQPTGLLGQPLLTYLCVAPAMRGQGIAKQLVETIQGQARGRMLLSSTEDWCLASQKIFTDLGWRKIGALAGVNKDGSTEYFYAVDLNH”: the protein production result is “failed”. With “MGGSNMKLDFSVAVHSILYLDAHRDSKVASRELAQSLHLNPVMIRNILSVLHKHGYLTGTVGKNGGYQLDLALADMNLGDLYDLTIPPTISYARFITGPSKTDEQADQSPIAANISETLTDLFTVADRQYRAYYHQFTMADLQADLNHHGTFLQHEQDSES” the entry was “not failed”; with “MGHHHHHHSHESVVPARMAEMARCIRERDFPSFAQLTMKDSNQFHATCLDTFPPISYLNAISWRIIHLVHRFNAHHGDTKVAYTFDAGPNAVIFTLDDTVAEFVAAVWHGFPPGSNGD”, “failed”. With “MGHHHHHHSHGFNKFGGPRDQGSRHDSEQDNSDNNTIFVQGLGENVTIESVADYFKQIGIIKTNKKTGQPMINLYTDRETGKLKGEATVSFDDPPSAKAAIDWFDGKEFSGNPIKVSFAT” the entry was “failed”. With “MGHHHHHHSHHTTEAKNDLRVGGRFVSKMEAKDGSFGFDFGGTYNKVRLYEFISYIMDDDRSVEITFKPEKDKTYIVESFEAEKSNPIDLQQKGWQAILDNFKKYVEENKLRGREK” the entry was “failed”; with “MGHHHHHHSHMANGTAGTKVALRKTKQAAEKISADKISKEALLECADLLSSALTEPVPNSQLVDTGHQLLDYCSGYVDCIPQTRNKFAFREAVSKLELSLQELQVSSAAAGVPGTNPVLNNLLSCVQEISDVVQR”, “failed”.
